assay: soluble on expression in E. coli; label from the status in PepcDB or PDB records

Sequence | soluble on expression in E. coli
MAEEPYVFTLKKRNNDDAEDDWDRYSENVRPTRRGRKIDALKRNVEEVVTEETARLKLDQLLEELQNLECSEESEELQKILDFCSWFEEKLAIGFHKVYYELLWKIISRHGFLEKYKEDERMLKIWEKMADNSAGHAHDIYQFAISRKSLVKCAALYARWSQSVELAGAYVEARRVLILARTNCAVPIQIVNDAEDALEMREMRRHLQERDSDDDEEEEETRKAFTNLPVIGDNHTVPIVRLPSMCSDTTKKAMKFDTGNVERVNPVCKDNQMQPFEVLSYTDADDVEYLRNVHELHAHIERYAIKETTNPSITGSSTSEAAAVTIYPVSSSEFEVWTVEGSGPTKAKARMAIKRVFKDLSFEEYAASLLPNHPSMVRATAKKLDFDETL | not soluble
MAEITEVRIYKSKGNGSVKAYASVSFDNEFVVKGLKVVEGEKGLWVSMPSRRMKDGSFQDVFHPVSREARDKIVDAVLKAYQEQE | not soluble
MAELILNQRPYPRDLGKIVCVGRNYAAHAKELNNPIPSSPILFIKPASSAVPFGPVFSIPKDQGSVHHELEIAILIGKALSRASTEQVAESIAGIGLGLDLTLRDVQDQLKEKGHPWERAKSFDGACPLTEFVAVNLASEDEWQAIGLTLEKNGQFQQQGSSAEMLFPILPLIAHMSEHFSLQPGDVILTGTPAGVGPLEVGDSLSAKLSLEDNVLLTCDGVVI | soluble
MAELRQVQVDIQQPGGIRELVQREAGDQVRGQDSFPGPDIRRVYQEVRYERRGKLICLIMAGGLGSRMNRPEKALIEVHGEALVDRTIRCMNGICSDIYALIDPSMERLQGKLRSVNVKVLAKRRGGYIEDLNHAMHSIGKFPILVIPGDIFIFNCSAFLDAVRRGMLAEANVVSFTDAGQYTGISIFNAQSGSYQDIDLNGSVANINTPEDLRAVIERLRTSEKLDGSAGHADG | not soluble
MAEPGGHEGPASTQRAKVCETHTAMVFFVEDRVYKRKKPVDLGFLDYTTRSSRRAVCEREIELNRRFAPDVYLGLGELRTPGEQEAEPLVVMRRMPDDRRLSHLVRTGAPVADDLRAVARHLAAWHSAAPRGPAIAEQGTRDALAARWEASFTQVDVLAAKGPTRDEAGEVERLVRRYLAGRKPLFGLRIEQGRVLDGHGDLLADDVFCLGDGPRILDCLEFDDALRYVDGLDDAAFLAMDLESLGAPESAAFFLAQYGEYSGDPAPPSLWHHYVAYRAFVRAKVSLIQARQGAPGAHATARRLVRMALRHLRASAVGLTLVAGLPGTGKSTLSGALADRLGAVLLSSDRLRKEMAGLSPQQTASADYGEGLYTPEWTARTYAELLDRAAALLALGESVVLDATWIDSAQREAARHTAESAGADLVALHCHVPDDVTAARLSTRAPGASDADLGVAEAMAAEEQPWSGAVGVDTGGSLEAAVGQALAAVRPWGSDQAKVFRRPYMEPDLEHHHHHH | not soluble
MAEQRSNIMRLPPSGYRLHRFPPLAQPVAVDEEFGLDNQGWQESQVDIQQQLEAGFQQGLQQGHEEGLRQGIEQGKQQGLLDGQKEGFQKGFVSGEQAGKQGFLEAAKPVNDLFQALSRWQSEKEQQQRHMICELVQKVAQQVIRAELTLMPQQILALVDETLSAMPGKAETVTVHLNPQDLERITHINADLPKSWKLVANNELPIGGCQLVTDDAEADASCDSRLEACMDNVKQHLLDEVSIPQVESENE | not soluble
MAETSNASAEPELIYFEVTSNEERFVHMVFQMASNTTNQFLIFVKDDETCFRAQRALYSSGEMTQCFLKNMNKDAFKKRKQELKNGTAKVWIADRSVIGKLVDCFSKELTVFLYDGISNDFPKQAVGKCHSVISLKQSRHTAVNTSDGLFEQVFHICQLYNATFTSPIKDWMASSKNGDLPENADTMKLVIARPSELLNSASTLRSFNDIVAKDPRILNLMEAFKVIENKARIDKDDNSRGMLYLCVKMRSELDGQYVTKNKADQFYRVEFNTLKNMKNKSEFLRKMCPS | not soluble
MAEVKEKRHEELGLSDEQVLEMFRTMLLARKIDERMWLLNRAGKIPFVISCQGQEAAQVGAAFALDREKDYALPYYRDMGVVLAFGMTAKELMLSGFAKAGDPNSGGRQMPGHFGQKKNRIVTGSSPVTTQVPHAVGIALAGKMEKKDLVTFVTFGEGSSNQGDFHEGANFAGVHKLPVIFMCENNKYAISIPVEKQLACKNVSDRAIGYGMPGYTVDGNDPLAVYKAVKEAADRGRRGEGPTLIETVSYRLTAHSSDDDDRVYRDKEEVEEAKKNDSIVTFAAYLKEVGVLTEESEKQMLDEIMHIVNEATEYAENAPYAAPEDALKHVYAE | not soluble
MAEVTGVRALTGAALDAALEDVARLRIAVFRAWPYLYDGDLDYERDYLQAYRNSDRAIVVGAFDGDRLIGASTGMPLADHADDFAAAFADSGLALDQVFYCAESVLLPDYRGHGVGHRFFDLREGHARALGFAKC | not soluble
MAFDGLFTRAITHEIANSLYTGRISKIYQPSKYEILLHIRANGKNQKLILSAHPTYARLHLTNQNYDSPALPPMFCMLLRKHLEGGFIEKIEQIDLERIIQITVRSRNEIGDESLKTLVIEIMGRHSNIILVDTKTNNILDSLKHVSLAVNRHRTVYAGAEYIAPPVQHKINPLQIETNDEFIRPLDFLSGNMDKQLVGTFTGISPLFAKEVVKKAGMVNEKALADAFFSIQKPLLTHTYSPTMTTSNGKEFFYLFPLAHLAGENKTFSSVSELLDRFFFGKAERDRVKQQAHDLERFMQNEKNKNEKKLIKLEKTLQDAGKADKYQLFGELLTANMYALKKGDKDIEVVNYYDENGGTVKIALDPLKTPSENAQRYFQKYQKAKNSIVVVEEQIEKTKEEILYFDSLLQQMEAASSKDIEEIREELAEEGYMRNRKTKNAKKKPTKPVLDKYVASDGTEIFVGKNNKQNDYLTTKFARRDEIWLHTKDIPGSHVVIRSLEPAEETLLEAAKIAAYYSKAKESSSVPVDFTKIRHVKKPSGAKLGFVTYDNQQTVYVTPDADTVMKLKA | not soluble
MAFELPALPYAKDALEPHISAETLDFHHGKHHNTYVVKLNGLIPGTEFENKSLEEIIKTSTGGIFNNAAQVWNHTFYWHCLSPNGGGEPTGAVAEAINAAFGSFADFKAKFTDSAINNFGSSWTWLVKKADGTLAITNTSNAATPLTEEGVTPLLTVDLWEHAYYIDYRNVRPDYMNGFWALVNWDFVAQNLAK | not soluble
MAFLARKTSSLLPATTSSTVKHMIYDEPHFAMQNSLAKLIKEKINPNVAQWEKSGRYPAHFVFKMLGQLGVFAVNKPVDYGGTGRDFAMSIAIAEQIGAVDCGSIPMSVMVQSDMSTPALAQFGSDSLRNRFLRPSINGDLVSSIAVSEPHAGSDVSAIRTHARRYGSDLIINGSKMWITNGDQADWACVLVNTSNAKNLHKNKSLVCIPLDSIGVHRSTPLDKLGMRSSDTVQLFFEDVRVPSSYIIGEEGRGFAYQMNQFNDERLVTVAVGLLPLQKCINETIEYARERLIFGKTLLDQQYVQFRLAELEAELEATRSLLYRTVLARCQGEDVSMLTAMAKLKIGRLARKVTDQCLQIWGGAGYLNDNGISRAFRDFRIFSIGAGCDEVMMQIIHKTQSKRQQKRI | not soluble
MAFRLAVDCLGFENHPREAIDAVLEYWSYHQELEFILVGDEKTFDGLDYLPKNITKQLASSCIDMTDTPLTARRKVNNSMQKAINLVRDGAADVVISAGSSAVYASLTYDGFGKIHKDVKSAFMSYVPTANNDWFYFLDVGANKNFTGKELYFLGLMADIFVKKTTNKISPRIALLNIGTEIHKGFDYHQEGYQLLNEDKHLNFTGFIEPRFLLDGVCDILVADGYSGNLVLKSMEGTFKTIARLLKQGYKRNPLAGLFSLGILKRIAKRFDYKNNAGAVVIGLNKLALKTHGSADKQQFLSTIRLAHTSLKSDLINAIKSSLDNYEK | soluble
MAGAITLACTIRFEANAEHVYLSSGTKQTVYHYPFPMSTIHITLNGERKEVPAGSTVSELLVIADADRQPVAVVVNEHIVRPDQRDSYILQERDQVEILVFAGGGLEHHHHHH | soluble
MAGDPMANITLSTQHYRIHRSDVEPVKEKTTDKDVFAKSITAVRNSFISLSTSLSDRFSLHLQTDIPTTHFHRGSASEGRAVLTSKTVKDFMLQKLNSLDIKGNASKDPAYARQTCEAMLSAVYSNNKDHCCKLLISKGVSITPFLKEIGEAAQNAGLPGEIKNGVFTPGGAGANPFVVPLIAAASIKYPHMFINHNQQVSFKAYAEKIVMKEVTPLFNKGTMPTPQQFQLTIENIANKYLQNASLEHHHHHH | not soluble
MAGDPMERIESRRARTVRQMLNIRKITYLEKTRKGIEMNSKTIGIDIGGANTKLASSDGTIVELHYLPLWKNTMLPEVLKEISQRLKPENVAVVMTGELADCFEDKEQGIRFIKENVDSAFGSGKVSYINSQGRFRKENDPLRDLAAANWAASARLIGEEIGDCIFVDVGSTTSDIIPVISGEHRAGHTDFERLLRSELVYAGTLRTNLAALLEKVKLEKGICRTSSELFATTADAYLILGEINEDKYTCETADGVGRSKIEAMRRIARLVCADLSEVGETEVYEIAEQVKEKQVSALTEAISEVAERNRLEKIAAAGLGEFLISEAAERLGFECISVAGRWGEEISKVFPAYAAARLLDKYSELEHHHHHH | not soluble
MAGDPMKKRFSNKVLIIGYGSVSQCTLPLLLDKLDIPLENITLIDFEDKSKALKKYTNQGLTFVREKITPENLDQVLSQNMENEGMIIDLSWNIDANEIVKWCHDHDVLYVNTSVEVWDPAEKFLTQSLLEKSLYLRQMRLQELSRDWKDAPTAVVDHGANPGLITHFVKQGLLDIAARTCEDKKVSPEDEQEIALLAKNRDFARLARKLGIRVIHCSERDTQIASRPKEVNEFVGTWSIEGLREEGTAPVEIAWGTHESKLPPLAHIPPYGPKNVILLPQMGVNAWVRSWIPDEEIVGMAIRHGESYGLSKLLTVWEGEKAVYRPTVHYAYMPSHDTLSSLCELRGRNYELQPRLRIMTNEIVSGEDIMGALLMGHSYNSWWTGSALSIEEARSLAPGQNATTLQVAAGIVAAILWMLENPREGVKTPEDLPHDFVLDIARPYLGKFISTPSDWTPLKNRKIFFKESPAVKHDPDPWQFENFIFVGLEHHHHHH | soluble
MAGDPMNSRMKIKKAYEYMKSFHQHDTTGHDIAHVERVYNNACYIAKRENITDTLVIELSSLLHDTVDSKLTDEILAYDQLKQFLSTLDLSSEISQQVLYIIKHMSYRAGKNNHVKLSIDGEIVRDADRLDAIGAIGIARTFQFSGHFGEPMWTETKLSNEELHTSLVEELDNSAIKHFYEKLFKLKDLMHTPTAKKLAEERHQFMIQYLKQFMSEWNFNKELEHHHHHH | soluble
MAGDPMSRRVIRTYKLAVPGHLSQTCEELNRTAARIYNKTMSLVRKIHQKKGFWLSWPTADKYILRWAENIKIHVHSKQAFVQLYFQALKGYFKATKKNPDAKPPHKKKRYLPFIWKESAVKLLPDGTLRLSLGKERESFVVQTPLKPPLRIKQTRLVFEDGYYLHLAIEVEIEEKNAGSGVMAVDLGVLRPITCFDGKEVISYHGGVLSSVLRYRNKRLASFQSAIAECKKGSRRYNKLVRAKKRVLRRLRNQINDIMHKITSNFIGLCLRKQIGTIVIGDVTGIRERADYSDNANQKIHQWQFRKLIEMIRYKAEQFGIEVKLISEANTSKTCPVCGAKNNPNGRRYHCKACGFEYHRDGVGAINIWKRYPGTGQVVAGLAPVRGVRFHPHLCGHGASLAPWKVALEHHHHHH | not soluble
MAGDPMTFLIIRQTHENVLSKETVVKKVEASYEGKVTKATQSKDKKTYDITLENPKGTYFVKADAISADILSMNRVKAVNPSAMTEKEAEHLALERVPGTVKKQTRQSQVATYTIQKEDGKTYEVKVDMQAKTVLSADQISSKDQQKTPITKKEAKTIAERKTGGTADDADLEESEGTLIFEVDVDLPDNKEATVKINAYTGKVANIVYEDLEHHHHHH | not soluble

Reference: the DeepSol protein solubility set
